Results on two molecules are retold here after patent US20150025225A1 (SHIONOGI, published 2015).

In assay [1] the target is T1, cynomolgus monkey EL-C2 tag (cynomolgus monkey, UniProt Q9Y5X9 21-500 (human entry), limits assumed).
T1 construct: used as heparin extract of transfected HEK293F cells; also called cynomolgus EL
T1 chain: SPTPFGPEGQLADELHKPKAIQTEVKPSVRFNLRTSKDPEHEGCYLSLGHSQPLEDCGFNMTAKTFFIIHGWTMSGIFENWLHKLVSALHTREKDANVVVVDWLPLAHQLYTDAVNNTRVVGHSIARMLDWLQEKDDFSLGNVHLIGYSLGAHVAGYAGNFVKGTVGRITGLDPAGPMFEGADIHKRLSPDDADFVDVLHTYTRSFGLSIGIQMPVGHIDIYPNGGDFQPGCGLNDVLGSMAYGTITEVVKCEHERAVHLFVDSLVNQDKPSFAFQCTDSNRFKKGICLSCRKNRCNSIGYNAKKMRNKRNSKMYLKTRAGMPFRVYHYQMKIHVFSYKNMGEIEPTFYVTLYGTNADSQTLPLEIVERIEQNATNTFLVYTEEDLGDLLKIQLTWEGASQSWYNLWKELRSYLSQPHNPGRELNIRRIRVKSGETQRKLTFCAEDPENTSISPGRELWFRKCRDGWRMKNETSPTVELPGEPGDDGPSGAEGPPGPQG
The assay can be described thus: Biacore SPR; EL captured by anti-C2-tag antibody, antibody as analyte, bivalent fit; column head prints nM, kd/ka gives M. Here is the method:
(§1) The binding affinities of anti-EL antibodies were measured using Biacore. Anti-C2-tag antibody was immobilized on a sensor chip CM5 (GE HealthCare) using amine-coupling and baboon EL heparin extract or cynomolgus monkey heparin extract diluted with HBS-P (GE Healthcare) was added and EL were captured on the sensor chip. Then anti-EL antibodies diluted with HBS-P were added and the binding affinities were calculated by bivalent fitting of BIAevaluation software (FIG. 9A-G).

Assay [2] has as its target T2, Baboon EL-C2 tag (baboon, UniProt Q9Y5X9 21-500 (human entry), limits assumed).
T2 construct: used as heparin extract of transfected HEK293F cells; also called baboon EL heparin extract
T2 chain: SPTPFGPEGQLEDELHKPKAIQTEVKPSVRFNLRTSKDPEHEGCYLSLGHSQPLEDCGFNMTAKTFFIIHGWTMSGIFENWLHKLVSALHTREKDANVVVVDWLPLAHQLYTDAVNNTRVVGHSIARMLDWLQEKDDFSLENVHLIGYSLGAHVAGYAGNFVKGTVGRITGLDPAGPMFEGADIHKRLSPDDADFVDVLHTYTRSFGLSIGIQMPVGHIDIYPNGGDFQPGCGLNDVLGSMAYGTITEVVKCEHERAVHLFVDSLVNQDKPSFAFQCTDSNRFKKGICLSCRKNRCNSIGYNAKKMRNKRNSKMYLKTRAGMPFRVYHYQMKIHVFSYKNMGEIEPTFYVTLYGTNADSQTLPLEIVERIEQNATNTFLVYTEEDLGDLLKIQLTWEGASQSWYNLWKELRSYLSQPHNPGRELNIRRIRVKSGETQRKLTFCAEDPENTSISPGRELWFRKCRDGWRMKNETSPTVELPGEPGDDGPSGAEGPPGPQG
The description is as above. Here is the method: as §1

Assay [3] deals with T1, cynomolgus monkey EL-C2 tag. The assay can be described thus: cell-based or functional assay.
Assay [4] has as its target T2, Baboon EL-C2 tag. The assay can be described thus: cell-based or functional assay.
The target of assay [5] is T3, human EL[331-459]-mouse EL-C2 tag (human/mouse chimera, UniProt Q9WVG5 21-500 (mouse entry)).
T3 chain: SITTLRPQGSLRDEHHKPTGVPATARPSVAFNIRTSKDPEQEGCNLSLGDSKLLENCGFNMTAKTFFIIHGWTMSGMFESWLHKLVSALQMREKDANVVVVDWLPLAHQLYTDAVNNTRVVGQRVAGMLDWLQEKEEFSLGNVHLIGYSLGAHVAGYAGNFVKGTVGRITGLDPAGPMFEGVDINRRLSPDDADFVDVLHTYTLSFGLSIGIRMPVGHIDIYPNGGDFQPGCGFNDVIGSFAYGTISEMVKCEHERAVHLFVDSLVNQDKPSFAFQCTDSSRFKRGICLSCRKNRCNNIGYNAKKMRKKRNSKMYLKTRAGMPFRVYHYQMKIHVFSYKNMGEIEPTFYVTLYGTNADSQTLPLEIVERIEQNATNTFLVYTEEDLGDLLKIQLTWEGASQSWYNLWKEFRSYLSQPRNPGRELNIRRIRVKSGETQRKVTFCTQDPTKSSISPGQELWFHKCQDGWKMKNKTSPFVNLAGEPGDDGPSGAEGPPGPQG
The assay can be described thus: cell-based or functional assay.

The target in assay [6] is T4, rabbit EL-C2 tag (rabbit).
T4 chain: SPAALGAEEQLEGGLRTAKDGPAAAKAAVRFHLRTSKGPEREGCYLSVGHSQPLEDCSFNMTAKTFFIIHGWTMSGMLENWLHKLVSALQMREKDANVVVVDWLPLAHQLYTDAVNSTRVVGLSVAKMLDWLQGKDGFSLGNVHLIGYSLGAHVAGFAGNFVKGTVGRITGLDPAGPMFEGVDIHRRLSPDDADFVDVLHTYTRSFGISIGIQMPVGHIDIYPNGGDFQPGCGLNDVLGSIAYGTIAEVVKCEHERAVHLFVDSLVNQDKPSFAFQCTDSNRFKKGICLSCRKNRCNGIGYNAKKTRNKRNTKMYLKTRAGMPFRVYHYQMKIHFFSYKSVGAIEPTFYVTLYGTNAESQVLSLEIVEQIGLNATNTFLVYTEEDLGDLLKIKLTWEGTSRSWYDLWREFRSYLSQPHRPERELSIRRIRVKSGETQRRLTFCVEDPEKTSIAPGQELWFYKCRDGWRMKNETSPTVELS
The assay is described as follows: cell-based or functional assay.

In assay [7] the target is T1, cynomolgus monkey EL-C2 tag. The assay is described as follows: Biacore SPR; EL heparin extract captured by anti-C2-tag antibody on CM5, antibody as analyte, bivalent fit. Here is the method:
as §1
On the technique in general: Surface plasmon resonance follows binding to a sensor surface in real time, without labels.

Assay [8] concerns the target T2, Baboon EL-C2 tag. Described as above. Here is the method:
as §1

Assay [9] deals with T1, cynomolgus monkey EL-C2 tag. The assay is described as follows: ELISA-type titration, A450 against antibody concentration; protocol not described in the text. In general terms: An ELISA detects its analyte on a solid surface through an enzyme-linked reagent.

B1: 12B10 antibody (antibody, IgG2a, V domains shown)
VH: QVTLKESGPGILKPSQTLSLTCSFSGFSLSTSGMGVGWIRQPSGKGLEWLAHIWWNDEKYYNPSLKSQLTISKDTSRNQVFLKITSVDTADTATYYCARSYDGSPFPSWGQGTLVTVSA
VL: DIQMTQSPSSLSASLGGKVTITCKASQDINKYIAWFQHKPGKGPRLLMAYPFTLQPGIPSRFSGNGSGRDYSFSISNLEPEDIATYYCLQYDNLLWTFGGGTRLEIK
Broadly, the koff is a measure of how fast the partners let go of each other. The term kon denotes a measure of how fast the partners come together. On to B1, for which the Kd in assay [1] was determined as 0.2 nM; in assay [2], 0.6 nM. Also, the “Neutralizing activity_IC50” value in assay [3] stood at 6.2 nM; in assay [4], 7.1 nM; in [5], 15 nM; in assay [6], 201 nM. The koff in [7] stood at 0.00018 s⁻¹; in [8], 0.00021 s⁻¹. Moreover, the figures for the kon in assay [7] and in assay [8] were 880000 M⁻¹ s⁻¹ and 350000 M⁻¹ s⁻¹, respectively.

B2: 47B2 antibody (antibody, IgG2a, V domains shown)
VH: QVALKESGPGILQPSQTLSLTCSFSGFSLSTSGMGVGWIRQPSGKGLEWLAHIWWHGNKYYSTGLKSRLTISKDTSNNQVFLKIASVDTADTATYYCARISAGYPLDYWGQGTSVTVSS
VL: DIQMTQSPSSLSASLGGKVTITCKASQDINKYIVWYQHKPGKGPRLLIHYTSTLQPGFPSRFSGSGSGRDYSLSITNLEPEDIATYYCLQYDNLLWTFGGGTKLEIK
What is called EC50 (read off the curve) is the concentration at which the effect is half-maximal. Turning to B2, the “EC50 (read off the curve)” value in [9] was about 6 ng/mL. The Kd in assay [1] was 1.3 nM; in [2] it was 4 nM. Further, the “Neutralizing activity_IC50” value was 4.7 nM in [3], 4.6 nM in assay [4], 5.3 nM in assay [5] and 37 nM in assay [6]. The koff in assay [7] stood at 0.00033 s⁻¹; in [8] it was 0.00056 s⁻¹. Moreover, the kon in assay [7] turned out to be 250000 M⁻¹ s⁻¹; in assay [8], 140000 M⁻¹ s⁻¹.
